# Test results reported in the DeepSol protein solubility set.
# Assay: soluble on expression in E. coli; label from the status in PepcDB or PDB records
row,Sequence,soluble on expression in E. coli
1,MAHNYLLEIGLEEIPAHVVTPSIKQLVQKVTAFLKENRLTYDSIDHFSTPRRLAIRINGLGDQQPDIEEDAKGPARKIAQDADGNWTKAAIGFTRGQGLTVDDITFKTIKGTDYVYVHKLIKGKMTKEILTGLKEVVESINFPTMMKWANFDFKYVRPIRWLVSILDEEVLPFSILDVTAGRRTEGHRFLGEAVELANAEEYEAKLHDQFVIVDADERKQLISNQIKAIAESNRWNVTPNPGLLEEVNNLVEWPTAFNGGFDEKYLAIPEEVLITSMRDHQRFFFVRDQAGKLLPNFISVRNGNEEFIENVVRGNEKVLTARLEDAAFFYEEDQKHDINYYVDRLKKVSFHDKIGSMYEKLQRVNSIAKVIGNTLNLNQTELDDIDRATMIYKFDLVTGMVGEFSELQGVMGEKYAQLNGENQAVAQAIREHYMPNSAEGDLPESVTGAVVALADKFDNIFSFFSAGMIPSGSNDPYALRRHAYGIVRILNSRDWQLDLNQFKSQVKTELAENGTAFGVDVDQNFDQVLNFFNDRIKQLLDHQKISHDIVETVLTGNNHD,not soluble
2,MAHTKKRIFDGLYAQLEETDGNVVLFSAKGEPSVIFEITNPVQQLCTDAEQYMLFQDVLSNVVQTLGEGYALQKQDVLCKQSYHHEVPEDAEFLTKSYFRYFEGREFTEIRTYLILTQEAQRSQFVQYDPKKWLDFHSKVSKVSDILKEKNIKYRKLSKEEVNEYCHRFMAFQFRHGPFSMTNFKASDEYLKIGDRVVRSYPLVDIDEINLPSLVKPYTQMNINGYGIATDLFSFLTSVPHADCVVFNQVVQIPNQRKLLRKLQAKAKRHGSMPDPSNKIAKEDIEEVLDRLAVDSTQLVYCNFNILVSCLVDKVTPVTSYLETKLYECGIMPSRTAYNQLELFTDSFPGNGYAFNPDYDLFLTLSDVALCFFFKEHLKGSEDTPLTTYYTDRQGLPVCIDITGKEGKVKMTDNANFFCIGPSGSGKSFHMNSVVRQLLEQNTDVVMVDTGDSYEGICGYYKGTYISYSKEKPISMNPFKVTKEEYDLNFGEKKNFLKSLIFLIFKGNEFPSKIEDMLINQTIVEYYEAYFHPFTKFTEKEREGLRQKLLVASKMEEDYDKFSHSMEDIDAQIREAEMDKQAESRALMLPAEARRLKLLRQCRSLYALAQDEAASKGEKERALQIIENYKKELYNNSMLIKIDKQIDHIEEQKRRLKVRVLSFNSYYEFALERIPQIVAQEKIQFNIRDFAAILKQFYRGGELEMTLNSDLNVNLFDEQFIVFEIDKIKDDPVLFPIVVLIIMDVFLQKMRIKKGRKALIIEEAWL,not soluble
3,MAIETAILEKIKQYQTIIIHRHQRPDPDCIGSQLALRAILRASFPEKTVVAVGKHYPGFDWMGQADQEVSDDTYHQALVIVVDTANQPRVDDERWQTGAAVIKIDHHPNDDAFGDLQWVLPQASSTSEIIYDWFEANHADLTMPDDAARLLYAGIVGDTGRFMYPATSANTFAVAGKLLAYDFSMTAVNQAEDEISPEMARLSAYAYQNLEILPSGAAYLKLTDEIVESFGLAASDSTSAIVPLPGKITSVVAWAIFVESKDKTFRVRLRSKGPSINELAKRHGGGGHALASGAAAKDQAEIDQVIHELDQLVADTKGENELEHHHHHH,soluble
4,MAIGVQKKTSTPLDVGTEQEPTNLEKTIGTLRRCLQIAGTSNKPGSRSAKNSISEESNDLTMEESVPEASKWPHCQHMISQDEAPRNDELASPNIRIVAYKDESQINDIMRLITKDLSEPYSIYTYRYFLHNWPEYCFLAYDQTNNTYIGAVLCKLELDMYGRCKGYLAMLAVDESCRRLGIGTRLVRRALDAMQSKGCDEIVLETEVSNKNAQRLYSNLGFIRQKRLLKYYLNGGDAFRLKLIFTSRRVRSLNNQENYQPRCRVNEDDTPDEEEGTY,not soluble
5,MAIIIGADKAGQELKEVIKDYLKEGKYEVVDVSENEVRDFVDTTLAVVKEVNASDDNLGIVIDAYGVGSFMVATKIKGMVAAEVSDERSAYMTRGHNNARIITLGSEISAPGIAKNIIKGFVEGKYDGGRHQVRVDMLNKMC,soluble
6,MAIKNAFYAQSGGVTAVINASAAGLLETARAHSDKIGKVYAGRNGIIGALTEDLIDTSAESTEAIRALRHTPSGAFGSCRYKLKSLEDNRREYERLIEVFKAHDIGYFFYNGGGDSADTCLKVSQLAGTLGYPIQAIHVPKTVDNDLPITDCCPGFGSVAKYIAVSMLEASFDVASMAKTSTKVFILEVMGRHAGWIAAAGGLASNEDHEVPIIILFPEVTFDQEKFLAKTDHYVKEYGYCTVVVSEGVKGTDGKFLSDQGLRDAFGHAQLGGVAPVIANIVKNGLGLKYHWGVADYLQRAARHIASGTDVEQAYAMGKAAVEYAIAGHNSVMPTIERISSSPYAWKTGMVELSKVANVEKMMPADFISEDGFGITGKCREYLSPLIEGEDYPPYKNGLPDYVRLKNVAVTKKLAEFKILEHHHHHH,not soluble
7,MAIPAFHPGELNVYSAPGDVADVSRALRLTGRRVMLVPTMGALHEGHLALVRAAKRVPGSVVVVSIFVNPMQFGAGGDLDAYPRTPDDDLAQLRAEGVEIAFTPTTAAMYPDGLRTTVQPGPLAAELEGGPRPTHFAGVLTVVLKLLQIVRPDRVFFGEKDYQQLVLIRQLVADFNLDVAVVGVPTVREADGLAMSSRNRYLDPAQRAAAVALSAALTAAAHAATAGAQAALDAARAVLDAAPGVAVDYLELRDIGLGPMPLNGSGRLLVAARLGTTRLLDNIAIEIGTFAGTDRPDGYRA,soluble
8,MAISDGRTGNTRQAEALASTLVGSLYTTQVLKPRIPWRWTAPYCLPGAKHAFGTTFSHALRYPPFLAIGCGRQAALATRLLHKQGACVVQILDPRLPARHWDLLVVPEHDHIRGHNVLTLLGSLHPVNDVWLATGRAQFPELGDLPGQRVALLVGAPTPQAPWQPAQLEELCTALVKGLSCGGSVLATTSRRTPPELATQLRKHLATIPGLFWNNTDKGANPYPGILGWADAIIATADSVNLLSEACATRAPVTAAFANQTRGRIRCFIDALGARLCTVENLLAIDTLAQPLRETERIANEVRAWFGMV,not soluble
9,MAIVLLVLHVCTGLRGSPVSGRVRMAVDSGIYLAPCSNNDAQEHLKRTVINGVDRDDYGQYTNVGFGDSVSIWGVKGGNESHWQDIDAGDYLFFYTGDETYSQVAEVLATDQNEGLAEHLWPGFEDTWEFIIYLNEPIPVNIDSNEIADYAGYKQNYILGFQSLRGSAVDEINDEYGSIEGYINANRTDGNHIQTSGGSQDPDEGDDSVVDEVLDEADRDEEAYANIARQLEEVGQVVFYGPPGTGKTYNAQQFARWWLHNLQSEPRESQVRSVTFHPSYTYEDFIEGLTANATENSVSYDIKPGKFKAICEDARVAYQETGPNEEPPRYVLLIDEINRGNLAQIFGETITLLEEDKRGTLHVDLAHSGGSFTIPPNLYVIGTMNTADRSVALVDAALRRRFRFIDFPPDYGVARSRFGFDTEYDLTSAARGERSDLEQLQALSIQAVEQLNETIIELPDLGKGKQIGHSYLLVDPDDEQALVDAWRYEILPLLEEYFYGQLSRIRQELFNQNGDSLVDWEREQIKDFDPETLRESLQAIVNAGLEHHHHHH,not soluble
10,MAIVNATDQTFAAETKDGLTLVDFWAPWCGPCRMIAPVLEELDREMGDKVKIVKVNVDENQETASKFGVMSIPTLLVFKNGELVDKAIGYQPKEALVQLVGKHVS,soluble
11,MAKEGSVAPKERINVTFKPATGGNQEEIELPLKLLAIGDYTHRRDERKVEDRKPISIDKTTFDEVLAKQELELTLSVPNRLQDEEGVAEELPVKLRVNSMKDFNPASLVEQVPELKKLMELRDALVALKGPLGNAPAFRKAIEGVLADDESRGRVLGELGLKAPAPDA,not soluble
12,MAKKKKKKSFNVTRPTDPPVYPVTVPILGHIIQFGKSPLGFMQECKRQLKSGIFTINIVGKRVTIVGDPHEHSRFFLPRNEVLSPREVYSFMVPVFGEGVAYAAPYPRMREQLNFLAEELTIAKFQNFVPAIQHEVRKFMAANWDKDEGEINLLEDCSTMIINTACQCLFGEDLRKRLDARRFAQLLAKMESSLIPAAVFLPILLKLPLPQSARCHEARTELQKILSEIIIARKAAAVNKDSSTSDLLSGLLSAVYRDGTPMSLHEVCGMIVAAMFAGQHTSSITTTWSMLHLMHPANVKHLEALRKEIEEFPAQLNYNNVMDEMPFAERCARESIRRDPPLLMLMRKVMADVKVGSYVVPKGDIIACSPLLSHHDEEAFPEPRRWDPERDEKVEGAFIGFGAGVHKCIGQKFGLLQVKTILATAFRSYDFQLLRDEVPDPDYHTMVVGPTASQCRVKYIRRKAAAAHHHHHHHH,soluble
13,MAKKTSSKGKLPPGPTPLPIIGNMLQIDVKDICKSFTNFSKVYGPVFTVYFGMNPIVVFHGYEAVKEALIDNGEEFSGRGNSPISQRITKGLGIISSNGKRWKEIRRFSLTTLRNFGMGKRSIEDRVQEEAHCLVEELRKTKASPCDPTFILGCAPCNVICSVVFQKRFDYKDQNFLTLMKRFNENFRILNSPWIQVCNNFPLLIDCFPGTHNKVLKNVALTRSYIREKVKEHQASLDVNNPRDFIDCFLIKMEQEKDNQKSEFNIENLVGTVADLFVAGTETTSTTLRYGLLLLLKHPEVTAKVQEEIDHVIGRHRSPCMQDRSHMPYTDAVVHEIQRYSDLVPTGVPHAVTTDTKFRNYLIPKGTTIMALLTSVLHDDKEFPNPNIFDPGHFLDKNGNFKKSDYFMPFSAGKRICAGEGLARMELFLFLTTILQNFNLKSVDDLKNLNTTAVTKGIVSLPPSYQICFIPVHHHH,soluble
14,MAKKVAVLAVNPVNGCGLFQYLEAFFENGISYKVFAVSDTKEIKTNSGMVLIVDDVIANLKGHEDEFDALVFSCGDAVPVFQQYANQPYNVDLMEVIKTFGEKGKMMIGHCAGAMMFDFTGITKGKKVAVHPLAKPAIQNGIATDEKSEIDGNFFTAQDENTIWTMLPKVIEALKLEHHHHHH,soluble
15,MAKNIPFKLILEKAKDYQADMTRFLRDMVAIPSESCDEKRVVHRIKEEMEKVGFDKVEIDPMGNVLGYIGHGPRLVAMDAHIDTVGIGNIKNWDFDPYEGMETDELIGGRGTSDQEGGMASMVYAGKIIKDLGLEDEYTLLVTGTVQEEDCDGLCWQYIIEQSGIRPEFVVSTEPTDCQVYRGQRGRMEIRIDVQGVSCHGSAPERGDNAIFKMGPILGELQELSQRLGYDEFLGKGTLTVSEIFFTSPSRCAVADSCAVSIDRRLTWGETWEGALDEIRALPAVQKANAVVSMYNYDRPSWTGLVYPTECYFPTWKVEEDHFTVKALVNAYEGLFGKAPVVDKWTFSTNGVSIMGRHGIPVIGFGPGKEPEAHAPNEKTWKSHLVTCAAMYAAIPLSWLATE,soluble
16,MAKNTSCGVQLRIRGKVQGVGFRPFVWQLAQQLNLHGDVCNDGDGVEVRLREDPEVFLVQLYQHCPPLARIDSVEREPFIWSQLPTEFTIR,soluble
17,MAKQTIIVMSDSHGDSLIVEEVRDRYVGKVDAVFHNGDSELRPDSPLWEGIRVVKGNMDFYAGYPERLVTELGSTKIIQTHGHLFDINFNFQKLDYWAQEEEAAICLYGHLHVPSAWLEGKILFLNPGSISQPRGTIRECLYARVEIDDSYFKVDFLTRDHEVYPGLSKEFSR,soluble
18,MAKRVIIAGGNIAGTIVANRLVQKLEHEVNKGDVEIVALNKSDEHIYLPGQLLVGFGLETPGELVRKESELLDPRIKFLHGQKGTISKIDVANHSVQTADGVSHSYDYLVITTGVDYTWDEIPGYRSAAHTVYEYDDAIKMREALEKFDGGTIVVNTAKLPHRCPVAPLEVTLILDDYLRKRGIRDKTKIIYTYPVQGVFGRPITNKFMLRLFEQRGIEVHSPFTVTSVDPNNKVIESQEGEKLKFDMLIGIPPNMGAKVIEDSGIGDRRRWVPTDKFTLRMKDHSNVYVMGDATDLPVSKAGSTADFESYTVAHNIANDIKGNLGVKHYGGDVLCYIATGTDQATYIRFSYTMNESPPPPSYVHWWGKIMYNKMYWTVTAKAVVLEHHHHHH,not soluble
